Data: publication doi:10.1101/2022.07.01.498528 (bioRxiv, 2022)

B1: VHH cAb_(CMY-2)(272) (VHH)
VHH: QVQLVESGGGLVQPGGSLRLSCAASGSIFMIYAMGWYRQAPGKQRELVADITSGGSTDYTDSVKGRFTISRDKNTVYLQMNSLKPEDTAVYYCNADHGPGFGYDYWGQGTQVTVSS
B2: VHH cAb_(CMY-2)(254) (VHH)
VHH: QVQLVESGGGMVQPGGSLRLSCAASGFTFSNYDMSWVRRAPGKGPEWVSTINTGGGSTSYADSVKGRFTISRDNAKNTLYLQMNSLKPEDTALYYCTIDRGLHYSDLGEYDYWGQGTQVTVSS
B3: VHH cAb_(CMY-2)(250) (VHH)
VHH: QVQLVESGGGLVQPGGSLRLSCAASGSIFSIYGMGWYRQAPGKQRELVAEITSGGSTNYADSVKGRFTISRDNAKNTVYLQMNSLNPEDTAVYYCNADGTMWGAGDYWGQGTQVTVSS

Legend:
[1] = molecular target: VIM-4 β-lactamase (class B) (Pseudomonas aeruginosa, VIM-4, UniProt Q8KRJ3, strain); experiment: BLI
[2] = molecular target: CMY-1 β-lactamase (class C) (Klebsiella pneumoniae, CMY-1, UniProt P71420, strain); experiment: BLI
[3] = molecular target: OXA-48 β-lactamase (class D) (Klebsiella pneumoniae, OXA-48, UniProt Q6XEC0); experiment: BLI
OXA-48 β-lactamase (class D), sequence (Q6XEC0 23-265): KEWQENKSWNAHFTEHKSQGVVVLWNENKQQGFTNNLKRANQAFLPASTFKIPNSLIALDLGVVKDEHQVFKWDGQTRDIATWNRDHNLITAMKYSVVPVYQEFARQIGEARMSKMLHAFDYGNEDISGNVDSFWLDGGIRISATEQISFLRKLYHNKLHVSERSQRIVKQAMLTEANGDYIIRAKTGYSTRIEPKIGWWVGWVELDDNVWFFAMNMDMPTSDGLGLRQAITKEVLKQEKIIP

[4] = molecular target: TEM-1 β-lactamase (class A) (Escherichia coli (assumed), TEM-1, UniProt P62593); experiment: BLI
TEM-1 β-lactamase (class A), sequence (P62593 24-286): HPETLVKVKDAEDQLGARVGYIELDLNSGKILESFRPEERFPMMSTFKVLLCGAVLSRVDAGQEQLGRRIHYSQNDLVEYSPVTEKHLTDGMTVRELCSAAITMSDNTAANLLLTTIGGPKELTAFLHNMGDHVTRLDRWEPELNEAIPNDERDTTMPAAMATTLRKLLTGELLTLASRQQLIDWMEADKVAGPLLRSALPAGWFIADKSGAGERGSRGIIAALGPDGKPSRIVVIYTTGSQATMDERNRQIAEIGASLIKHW

[5] = molecular target: AmpC P99 of Enterobacter cloacae (class C β-lactamase) (Enterobacter cloacae P99, UniProt P05364); experiment: BLI
AmpC P99 of Enterobacter cloacae (class C β-lactamase), sequence (P05364 21-381): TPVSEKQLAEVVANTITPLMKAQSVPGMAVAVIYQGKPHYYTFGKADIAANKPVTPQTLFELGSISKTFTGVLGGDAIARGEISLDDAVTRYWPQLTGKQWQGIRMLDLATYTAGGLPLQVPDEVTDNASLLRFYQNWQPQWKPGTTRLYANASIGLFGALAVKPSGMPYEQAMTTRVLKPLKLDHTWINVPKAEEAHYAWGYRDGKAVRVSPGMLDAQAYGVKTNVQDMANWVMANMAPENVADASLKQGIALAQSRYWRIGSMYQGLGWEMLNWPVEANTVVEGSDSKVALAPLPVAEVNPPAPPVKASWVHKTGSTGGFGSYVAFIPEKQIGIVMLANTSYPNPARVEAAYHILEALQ

CMY-58 β-lactamase = CMY-58 β-lactamase (Escherichia coli entry (host isolate …, UniProt F1C3E3, strain)); experiment: ELISA
CMY-16 β-lactamase = CMY-16 β-lactamase (Proteus mirabilis entry (host isolate …, UniProt Q4LCT4, strain)); experiment: ELISA
CMY-60 β-lactamase = CMY-60 β-lactamase (Escherichia coli entry (host isolate …, UniProt G3F7G8, strain)); experiment: ELISA
CMY-42 β-lactamase = CMY-42 β-lactamase (Escherichia coli entry (host isolate …, UniProt F4YXC2, strain)); experiment: ELISA
CMY-61 β-lactamase = CMY-61 β-lactamase (Escherichia coli entry (host isolate …, UniProt G3F7G9, strain)); experiment: ELISA

Binder | binding result [1] | binding result [2] | binding result [3] | binding result [4] | binding result [5] | binding result (CMY-58 β-lactamase) | binding result (CMY-16 β-lactamase) | binding result (CMY-60 β-lactamase) | binding result (CMY-42 β-lactamase) | binding result (CMY-61 β-lactamase)
B1 | no binding (tested: 500 nM) | no binding (tested: 500 nM) | no binding (tested: 500 nM) | no binding (tested: 500 nM) | no binding (tested: 500 nM) | – | – | – | – | –
B2 | no binding (tested: 500 nM) | no binding (tested: 500 nM) | no binding (tested: 500 nM) | no binding (tested: 500 nM) | no binding (tested: 500 nM) | binds | binds | binds | binds | binds
B3 | no binding (tested: 500 nM) | – | no binding (tested: 500 nM) | no binding (tested: 500 nM) | binds | – | – | – | – | –
